Assay results as given in patent US20140011732A1.
Non-standard residues stand in square brackets, D forms with d. No end group written: not given here. Aib = CC(C)(N)C(=O)O

Assays:
[1] = molecular target: human serum albumin (HSA) (human) (UniProt P02768); assay: competition SPA on biotinylated HSA, 125I acylated GLP-1 tracer
[2] = molecular target: human serum albumin (HSA) (human), P02768; assay: as above; settings: remark: other sources report otherwise

EC50 [1] [nM] | EC50 [2] [nM] | Binder
300 to 800 |  | H[Aib]EGTFTSDVSSYLEGKAAREFIAWLVRGRG (not fully specified (residue 17); printed as N-epsilon23-[2-(2-[2-(2-[2-(2-(R)-3-[1-(17-Carboxyheptadecanoylamino)piperidin-4-ylcarbonylamino]-3-(carboxypropionylamino)ethoxy)ethoxy]acetylamino)ethoxy]ethoxy)acetyl][Aib8,Arg26,Arg 34]GLP-1-(7-37))
 | 300 to 800 | HAEGTFTSDVSSYLEGQAAKEFIAWLVRGRG (here or on the partner: Aib8; Lys26 N-epsilon carries the acyl side chain printed in the name; biotinylated)
